Results reported in PMC3463355.

B1: 30AATT (dsDNA)
DNA 1: ATCAGATAGCATCAATTCGGCCGCTTAGGG
DNA 2: CCCTAAGCGGCCGAATTGATGCTATCTGAT
modifications: 4 central bp of 30Blunt (TGTG) replaced by AATT
B2: 30Blunt (dsDNA)
DNA 1: ATCAGATAGCATCTGTGCGGCCGCTTAGGG
DNA 2: CCCTAAGCGGCCGCACAGATGCTATCTGAT

Key:
PARP-1 (full-length) = PARP-1 (full-length) (human, UniProt P09874 1-1014, V762A); test: HI-FI FRET
[1] = target: N-parp (Zn1-Zn3 and BRCT) (UniProt P09874 1-486); test: HI-FI FRET
Sequence of N-parp (Zn1-Zn3 and BRCT) (P09874 1-486): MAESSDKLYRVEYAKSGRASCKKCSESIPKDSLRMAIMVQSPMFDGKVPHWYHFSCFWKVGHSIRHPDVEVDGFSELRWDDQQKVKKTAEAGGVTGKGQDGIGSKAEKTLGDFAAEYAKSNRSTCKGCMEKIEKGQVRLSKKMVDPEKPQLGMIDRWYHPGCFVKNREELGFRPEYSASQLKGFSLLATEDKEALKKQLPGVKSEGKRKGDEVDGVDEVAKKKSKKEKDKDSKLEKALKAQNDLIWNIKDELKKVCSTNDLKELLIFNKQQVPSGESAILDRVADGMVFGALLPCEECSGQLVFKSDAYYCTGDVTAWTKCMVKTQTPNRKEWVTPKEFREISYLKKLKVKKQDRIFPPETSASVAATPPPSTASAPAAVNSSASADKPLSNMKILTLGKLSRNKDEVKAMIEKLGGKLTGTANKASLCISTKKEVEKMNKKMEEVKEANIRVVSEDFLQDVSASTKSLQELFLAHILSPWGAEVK

Sequence of PARP-1 (full-length) (P09874 whole entry V762A): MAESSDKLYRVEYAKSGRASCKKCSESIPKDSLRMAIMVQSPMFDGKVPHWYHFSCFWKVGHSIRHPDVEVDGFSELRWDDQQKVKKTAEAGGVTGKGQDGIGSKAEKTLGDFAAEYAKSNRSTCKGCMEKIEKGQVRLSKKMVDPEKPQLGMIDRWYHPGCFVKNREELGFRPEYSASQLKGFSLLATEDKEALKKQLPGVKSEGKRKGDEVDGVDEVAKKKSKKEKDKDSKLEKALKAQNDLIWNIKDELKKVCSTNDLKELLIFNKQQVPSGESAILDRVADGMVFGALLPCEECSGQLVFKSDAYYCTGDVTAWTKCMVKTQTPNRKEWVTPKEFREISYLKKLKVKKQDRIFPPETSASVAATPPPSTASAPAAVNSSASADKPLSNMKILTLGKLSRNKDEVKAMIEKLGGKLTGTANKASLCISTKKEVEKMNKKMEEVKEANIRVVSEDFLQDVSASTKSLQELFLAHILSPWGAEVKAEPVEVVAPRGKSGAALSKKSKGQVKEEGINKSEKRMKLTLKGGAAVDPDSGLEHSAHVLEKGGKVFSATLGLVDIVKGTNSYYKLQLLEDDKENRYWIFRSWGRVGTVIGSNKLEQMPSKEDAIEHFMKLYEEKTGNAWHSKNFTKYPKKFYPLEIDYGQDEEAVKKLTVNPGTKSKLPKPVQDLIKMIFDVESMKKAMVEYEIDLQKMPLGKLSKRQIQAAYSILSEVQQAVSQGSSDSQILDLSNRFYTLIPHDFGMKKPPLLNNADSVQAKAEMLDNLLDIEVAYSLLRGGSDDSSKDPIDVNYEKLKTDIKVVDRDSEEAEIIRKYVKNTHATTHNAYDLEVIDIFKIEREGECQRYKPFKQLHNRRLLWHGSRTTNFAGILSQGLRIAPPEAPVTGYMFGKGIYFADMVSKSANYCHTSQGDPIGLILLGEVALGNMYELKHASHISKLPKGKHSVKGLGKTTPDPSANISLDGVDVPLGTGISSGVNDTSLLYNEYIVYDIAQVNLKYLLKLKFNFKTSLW

Binder | Kd (PARP-1 (full-length)) [nM] | Kd [1] [nM]
B1 | 8.5 ± 2.1 | 25.7 ± 0.9
B2 | 31.7 ± 6.9 | 62.2 ± 10.2
